Experimental data reported in patent publication US7176008.

Biological target: T1, Biotinyl-EACA-EACA-Gly-Leu-Met-Val-Gly-Gly-Val-Val-Arg-OH
T1 chain: GLMVGGVVR

Protein	Km	Km (37° C.)	Km (room temperature)
activated thrombin-activatable fibrinolysis inhibitor (human TAFIa) (protein) ASASYYEQYHSLNEIYSWIEFITERHPDMLTKIHIGSSFEKYPLYVLKVSGKEQAAKNAIWIDCGIHAREWISPAFCLWFIGHITQFYGIIGQYTNLLRLVDFYVMPVVNVDGYDYSWKKNRMWRKNRSFYANNHCIGTDLNRNFASKHWCEEGASSSSCSETYCGLYPESEPEVKAVASFLRRNINQIKAYISMHSYSQHIVFPYSYTRSKSKDHEELSLVASEAVRAIEKISKNTRYTHGHGSETLYLAPGGGDDWIYDLGIKYSFTIELRDTGTYGFLLPERYIKPTCREAFAAVSKIAWHVIRNV	Values of Km for TAFIa and CPB were 8 and 12 µM, respectively		
human soluble carboxypeptidase M (protein) LDFNYHRQEGMEAFLKTVAQNYSSVTHLHSIGKSVKGRNLWVLVVGRFPKEHRIGIPEFKYVANMHGDETVGRELLLHLIDYLVTSDGKDPEITNLINSTRIHIMPSMNPDGFEAVKKPDCYYSIGRENYNQYDLNRNFPDAFEYNNVSRQPETVAVMKWLKTETFVLSANLHGGALVASYPFDNGVQATGALYSRSLTPDDDVFQYLAHTYASRNPNMKKGDECKNKMNFPNGVTNGYSWYPLQGGMQDYNYIWAQCFEITLELSCCKYPREEKLPSFWNNNKASLIEYIKQVHLGVKGQVFDQNGNPLPNVIVEVQDRKHICPYRTNKYGEYYLLLLPGSYIINVTVPGHDPHITKVIIPEKSQNFSALKKDILLPFQGQLDSIPVSNPSCPMIPLYRNLPDHS		the value was much higher (>50 µM) at 37 °C	Km for CPM was 38 µM at room temperature
human carboxypeptidase B (protein) ATGHSYEKYNKWETIEAWTQQVATENPALISRSVIGTTFEGRAIYLLKVGKAGQNKPAIFMDCGFHAREWISPAFCQWFVREAVRTYGREIQVTELLDKLDFYVLPVLNIDGYIYTWTKSRFWRKTRSTHTGSSCIGTDPNRNFDAGWCEIGASRNPCDETYCGPAAESEKETKALADFIRNKLSSIKAYLTIHSYSQMMIYPYSYAYKLGENNAELNALAKATVKELASLHGTKYTYGPGATTIYPAAGGSDDWAYDQGIRYSFTFELRDTGRYGFLLPESQIRATCEETFLAIKYVASYVLEHLY	Values of Km for TAFIa and CPB were 8 and 12 µM, respectively		
